Experimental findings from paper PMC12022753, “Mechanism of Cas9 inhibition by AcrIIA11” are described below.

Data set [1] has as its target T1, SaCas9 (Staphylococcus aureus, UniProt J7RUA5 1-1053).
T1 sequence: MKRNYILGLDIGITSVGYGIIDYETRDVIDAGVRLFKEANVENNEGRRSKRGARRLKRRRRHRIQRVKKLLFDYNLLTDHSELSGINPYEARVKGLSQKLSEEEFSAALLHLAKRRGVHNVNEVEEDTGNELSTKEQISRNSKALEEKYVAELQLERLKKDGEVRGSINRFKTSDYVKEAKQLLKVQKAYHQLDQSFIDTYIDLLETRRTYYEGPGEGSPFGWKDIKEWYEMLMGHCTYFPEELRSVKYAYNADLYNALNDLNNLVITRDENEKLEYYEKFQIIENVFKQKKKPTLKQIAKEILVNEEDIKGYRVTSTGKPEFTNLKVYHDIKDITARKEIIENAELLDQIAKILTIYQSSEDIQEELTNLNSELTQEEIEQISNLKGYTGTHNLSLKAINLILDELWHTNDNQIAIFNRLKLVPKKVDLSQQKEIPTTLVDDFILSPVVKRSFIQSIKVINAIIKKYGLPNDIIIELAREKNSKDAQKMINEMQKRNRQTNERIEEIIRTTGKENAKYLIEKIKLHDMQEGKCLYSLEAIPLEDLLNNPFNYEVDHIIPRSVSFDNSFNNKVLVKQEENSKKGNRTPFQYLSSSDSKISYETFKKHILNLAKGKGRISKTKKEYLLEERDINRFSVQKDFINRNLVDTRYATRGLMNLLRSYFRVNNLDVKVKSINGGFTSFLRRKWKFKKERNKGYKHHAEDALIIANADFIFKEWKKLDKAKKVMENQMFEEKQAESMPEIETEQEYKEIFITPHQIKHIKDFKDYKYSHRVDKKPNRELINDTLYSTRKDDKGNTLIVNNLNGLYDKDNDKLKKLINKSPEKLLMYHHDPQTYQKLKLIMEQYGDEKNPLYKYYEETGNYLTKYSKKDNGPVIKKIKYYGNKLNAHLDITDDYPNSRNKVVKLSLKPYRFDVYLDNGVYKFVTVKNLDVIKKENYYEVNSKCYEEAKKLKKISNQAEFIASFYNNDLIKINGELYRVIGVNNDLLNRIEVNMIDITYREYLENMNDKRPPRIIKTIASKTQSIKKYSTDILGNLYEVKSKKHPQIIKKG
The experiment in a line: single-molecule DNA curtains. Conditions: EMSA: 20 mM Tris-HCl pH 8, 5% glycerol, 100 mM KCl, 5 mM MgCl2, 1 mM DTT, 37 C, 1 mM NaCl.

Data set [2] deals with SaCas9;AcrIIA11 (Staphylococcus aureus;) (UniProt J7RUA5). The experiment in a line: single-molecule DNA curtains. As to conditions: 100 mM KCl, 5 mM MgCl2, 1 mM DTT, 37 C, sgRNA EMSA: 20 mM Tris-HCl pH 8, 5% glycerol, 1 mM NaCl. In general terms: Mobility shift assays separate free from complexed probe on a gel.
Data set [3] deals with dSaCas9 (nuclease-dead SaCas9);AcrIIA11 D10A;N580A (Staphylococcus aureus;) (UniProt J7RUA5). The experiment in a line: EMSA. As to conditions: 100 mM KCl, 5 mM MgCl2, 1 mM DTT, 37 C, sgRNA EMSA: 20 mM Tris-HCl pH 8, 5% glycerol, 1 mM NaCl.
The target in data set [4] is AcrIIA11-6xHis. Briefly: negative-stain electron microscopy; SaCas9 RNP mixed with ~2-fold excess of AcrIIA11-6xHis, passed over Superose 6 (peak eluted at a higher molecular weight than SaCas9 RNP); 200 mM NaCl, 25 mM HEPES pH 7.5, 5% glycerol, 2 mM DTT; low-resolution 3D reconstruction from 16 761 particles with the SaCas9 RNP crystal structure docked.
In data set [5] the target is T1, SaCas9. The experiment in a line: EMSA; RNP preformed with 490 nM SaCas9; EMSA: 20 mM Tris-HCl pH 8, 5% glycerol, 100 mM KCl, 5 mM MgCl2, 1 mM DTT, 37 C; sgRNA EMSA: 20 mM Tris-HCl pH 8, 5% glycerol, 1 mM NaCl, 1 mM DTT, 37 C; curtains (dSaCas9): 40 mM Tris-HCl pH 8, 2 mM MgCl2, 100 mM NaCl, 1 mM DTT, 0.2 mg/ml BSA. As to conditions: protein: recombinant, tags: N-terminal 3xFLAG, 6xHis-TwinStrep-SUMO removed, label: 5'-32P.

For the molecule “48.5 kb DNA (lambda) with 29.4 kb-target sgRNA”, the binding signal (% of molecules at target within 90 s) amounted to 43 in data set [1] (sgRNA EMSA: 20 mM Tris-HCl pH 8, 5% glycerol) and 12 in data set [2] (EMSA: 20 mM Tris-HCl pH 8, 5% glycerol).
Take “lambda DNA with scrambled sgRNA (no target)”: the binding signal (s (half-dissociation lifetime)) in data set [1] (scrambled sgRNA) was 61. The binding signal in data set [2] (scrambled sgRNA, AcrIIA11, EMSA: 20 mM Tris-HCl pH 8, 5% glycerol) is 98 s (lifetime).
“TTTGGGTATTGGGTATTGGGTTTTGGGTTTGGGTTATTTT (double strand) [5x strong PAM DNA (KD201/KD202), nontarget]” gave a binding signal in data set [3] (25 nM dSaCas9 and sgRNA, 5 uM AcrIIA11, EMSA: 20 mM Tris-HCl pH 8, 5% glycerol) of 90 % DNA bound.
Regarding “AAGAACGCCTCGCACACTCTTTTGACTTGATCGGCACGTAAGAGGTTCCAACTTTCACCATAATGAAATAAGATCACTACTTGGGTTATTTTTTGAGTTATCGAGATTTTCAGACTCTGTTATTCGGCGGTT (double strand) [SMART PCR DNA with noncomplementary sgRNA]”, the binding signal in data set [3] (2 uM AcrIIA11, noncomplementary, EMSA: 20 mM Tris-HCl pH 8, 5% glycerol) is 32 % DNA bound.

B1: SaCas9 RNP from TS-SUMO-SaCas9-sgRNA (enzyme)
chain: MKRNYILGLDIGITSVGYGIIDYETRDVIDAGVRLFKEANVENNEGRRSKRGARRLKRRRRHRIQRVKKLLFDYNLLTDHSELSGINPYEARVKGLSQKLSEEEFSAALLHLAKRRGVHNVNEVEEDTGNELSTKEQISRNSKALEEKYVAELQLERLKKDGEVRGSINRFKTSDYVKEAKQLLKVQKAYHQLDQSFIDTYIDLLETRRTYYEGPGEGSPFGWKDIKEWYEMLMGHCTYFPEELRSVKYAYNADLYNALNDLNNLVITRDENEKLEYYEKFQIIENVFKQKKKPTLKQIAKEILVNEEDIKGYRVTSTGKPEFTNLKVYHDIKDITARKEIIENAELLDQIAKILTIYQSSEDIQEELTNLNSELTQEEIEQISNLKGYTGTHNLSLKAINLILDELWHTNDNQIAIFNRLKLVPKKVDLSQQKEIPTTLVDDFILSPVVKRSFIQSIKVINAIIKKYGLPNDIIIELAREKNSKDAQKMINEMQKRNRQTNERIEEIIRTTGKENAKYLIEKIKLHDMQEGKCLYSLEAIPLEDLLNNPFNYEVDHIIPRSVSFDNSFNNKVLVKQEENSKKGNRTPFQYLSSSDSKISYETFKKHILNLAKGKGRISKTKKEYLLEERDINRFSVQKDFINRNLVDTRYATRGLMNLLRSYFRVNNLDVKVKSINGGFTSFLRRKWKFKKERNKGYKHHAEDALIIANADFIFKEWKKLDKAKKVMENQMFEEKQAESMPEIETEQEYKEIFITPHQIKHIKDFKDYKYSHRVDKKPNRELINDTLYSTRKDDKGNTLIVNNLNGLYDKDNDKLKKLINKSPEKLLMYHHDPQTYQKLKLIMEQYGDEKNPLYKYYEETGNYLTKYSKKDNGPVIKKIKYYGNKLNAHLDITDDYPNSRNKVVKLSLKPYRFDVYLDNGVYKFVTVKNLDVIKKENYYEVNSKCYEEAKKLKKISNQAEFIASFYNNDLIKINGELYRVIGVNNDLLNRIEVNMIDITYREYLENMNDKRPPRIIKTIASKTQSIKKYSTDILGNLYEVKSKKHPQIIKKG
In data set [4], B1 gave a stoichiometry N of 1.

B2: SaCas9 SMART target sgRNA (structured_RNA)
RNA: UAAUGAAAUAAGAUCACUACGUUUUAGUACUCUGGAAACAGAAUCUACUAAAACAAGGCAAAAUGCCGUGUUUAUCUCGUCAACUUGUUGGCGAGAU
Regarding B2, the binding result in data set [5] is listed as “binds”.

As usually defined, the stoichiometry N is the number of molecules, sites or subunits per partner or assembly.
